Results published in US9388213B2, “Polycomb repressive complex 2 (PRC2) inhibitors and uses thereof” (The Rockefeller University, priority 2012, dated 2016).
One block for each substance: values may come before it.

Assays:
PRC2 [1] = target: T1, PRC2 (Homo sapiens, UniProt Q15910); experiment: in vitro PRC2 histone methyltransferase reactions with H3 peptides added in trans; format: biochemical; settings: for effect on PRC2 activity relative to the no peptide control: H3 peptides (18-37) in trans, purified wildtype mononucleosomes (FIG. 3A)
T1 construct: Mono Q fractions containing stoichiometric components of PRC2 were pooled; made in house; FLAG-M2 immunoprecipitation from nuclear extract, then Mono Q
Experimental: Human EED protein containing an N-terminal FLAG-epitope was cloned in pCDH-EF1alpha-IRES-Puro (System Biosciences). Resulting lentivirus were used to establish stable 293T and Hela cell lines that express FLAG-hEED. Nuclear extracts were prepared from washed cell pellets as previously described (Lewis et al., “Daxx is an H3.3-specific Histone Chaperone and Cooperates with ATRX in Replication-Independent Chromatin Assembly at Telomeres,” Proc Natl Acad Sci USA 107: 14075-14080 (2010), which is hereby incorporated by reference in its entirety). FLAG-M2 immunoprecipitation of clarified nuclear extract was performed, followed by washing (250 mM KCl) and elution with 3XFLAG peptide (400 ng/μL). Eluate from the FLAG M2 beads was loaded onto a Mono Q ion exchange column. Mono Q fractions containing stoichiometric components of PRC2 were pooled. HEK293T cells expressing epitope-tagged Histone H3 were hypotonically lysed. Washed nuclei were resuspended in micrococcal nuclease digestion buffer (20 mM HEPES, pH 7.9, 30 mM KCl, 2 mM CaCl2, 0.4 mM PMSF, 3× Protease Inhibitor Cocktail (Roche). Micrococcal nuclease (Worthingtons, 15 U/μL) was added to nuclei, followed by incubation at 30° C. for 5-30 minutes. Reactions were returned to ice, followed by addition of 3 mM EDTA, 3 mM EGTA, 120 mM NaCl, 0.1% Triton. Nuclei were dounced (Wheaton A×10), followed by centrifugation 15K rpm in SS34. FLAG M2 beads were incubated with clarified supernatant at 4° C. Washed beads (150 mM KCl) were eluted with 3× FLAG peptide ([…]). DNA from M2 FLAG eluate fractions was resolved by gel electrophoresis for estimation of chromatin lengths. Fractions of similar chromatin (DNA) lengths were pooled and dialyzed (20 mM HEPES, pH 7.9, 10 mM KCl, 10% Glycerol, 0.4 mM PMSF, 0.5 mM DTT). Purified PRC2, peptides, and chromatin substrates were added to reaction buffer (50 mM HEPES, pH 7.9, 0.5 mM DTT, 0.4 mM PMSF). Labeled S-adenosyl-methionine (3H-SAM) was added to reactions (225 μM), followed by incubation at 30° C. The reactions were stopped by binding to P81 filter paper (GE Health) for scintillitation counting, or the addition of SDS-PAGE for autoradiography.

PRC2 [2] = target: T1, PRC2; experiment: kinetic studies of PRC2 methyltransferase assays with varying mononucleosome substrate concentrations; format: biochemical; settings: initial velocity versus nucleosome substrate concentration
Experimental: Purified PRC2, peptides, and chromatin substrates were added to reaction buffer (50 mM HEPES, pH 7.9, 0.5 mM DTT, 0.4 mM PMSF). Labeled S-adenosyl-methionine (3H-SAM) was added to reactions (225 μM), followed by incubation at 30° C. The reactions were stopped by binding to P81 filter paper (GE Health) for scintillitation counting, or the addition of SDS-PAGE for autoradiography.

T1 sequence (Q15910 whole entry): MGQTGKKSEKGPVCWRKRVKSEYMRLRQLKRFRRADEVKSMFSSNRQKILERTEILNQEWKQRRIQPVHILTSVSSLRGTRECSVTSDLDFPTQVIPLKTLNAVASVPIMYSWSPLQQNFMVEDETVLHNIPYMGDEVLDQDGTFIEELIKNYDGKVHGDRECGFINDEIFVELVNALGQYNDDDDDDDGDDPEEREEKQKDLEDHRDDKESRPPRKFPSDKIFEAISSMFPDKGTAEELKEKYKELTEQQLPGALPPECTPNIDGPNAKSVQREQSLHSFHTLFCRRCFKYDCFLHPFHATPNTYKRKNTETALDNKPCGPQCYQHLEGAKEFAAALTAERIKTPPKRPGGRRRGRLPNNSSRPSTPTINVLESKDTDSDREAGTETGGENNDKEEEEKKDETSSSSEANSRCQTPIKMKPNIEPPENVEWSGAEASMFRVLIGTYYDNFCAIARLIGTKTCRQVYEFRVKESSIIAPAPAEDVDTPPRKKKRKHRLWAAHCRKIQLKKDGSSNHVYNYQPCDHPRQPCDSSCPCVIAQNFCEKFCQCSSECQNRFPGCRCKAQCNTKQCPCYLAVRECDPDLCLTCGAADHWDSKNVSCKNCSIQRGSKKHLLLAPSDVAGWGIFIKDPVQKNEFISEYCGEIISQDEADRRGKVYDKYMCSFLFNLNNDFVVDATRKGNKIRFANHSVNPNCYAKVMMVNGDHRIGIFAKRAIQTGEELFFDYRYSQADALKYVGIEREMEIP
T1 sequence (O75530 whole entry partner): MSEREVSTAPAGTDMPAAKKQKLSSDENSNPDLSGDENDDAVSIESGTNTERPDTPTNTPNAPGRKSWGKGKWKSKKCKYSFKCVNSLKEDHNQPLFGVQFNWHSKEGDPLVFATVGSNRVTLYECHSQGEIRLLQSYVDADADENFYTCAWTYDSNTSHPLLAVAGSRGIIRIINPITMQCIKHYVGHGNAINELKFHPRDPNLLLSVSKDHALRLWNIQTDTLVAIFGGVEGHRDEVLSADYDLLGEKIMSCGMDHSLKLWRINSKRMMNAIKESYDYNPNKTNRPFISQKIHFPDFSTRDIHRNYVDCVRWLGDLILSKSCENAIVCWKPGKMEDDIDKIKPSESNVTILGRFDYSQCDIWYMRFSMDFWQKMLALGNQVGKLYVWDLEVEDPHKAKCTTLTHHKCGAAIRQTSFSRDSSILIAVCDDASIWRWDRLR
T1 sequence (Q15022 whole entry partner): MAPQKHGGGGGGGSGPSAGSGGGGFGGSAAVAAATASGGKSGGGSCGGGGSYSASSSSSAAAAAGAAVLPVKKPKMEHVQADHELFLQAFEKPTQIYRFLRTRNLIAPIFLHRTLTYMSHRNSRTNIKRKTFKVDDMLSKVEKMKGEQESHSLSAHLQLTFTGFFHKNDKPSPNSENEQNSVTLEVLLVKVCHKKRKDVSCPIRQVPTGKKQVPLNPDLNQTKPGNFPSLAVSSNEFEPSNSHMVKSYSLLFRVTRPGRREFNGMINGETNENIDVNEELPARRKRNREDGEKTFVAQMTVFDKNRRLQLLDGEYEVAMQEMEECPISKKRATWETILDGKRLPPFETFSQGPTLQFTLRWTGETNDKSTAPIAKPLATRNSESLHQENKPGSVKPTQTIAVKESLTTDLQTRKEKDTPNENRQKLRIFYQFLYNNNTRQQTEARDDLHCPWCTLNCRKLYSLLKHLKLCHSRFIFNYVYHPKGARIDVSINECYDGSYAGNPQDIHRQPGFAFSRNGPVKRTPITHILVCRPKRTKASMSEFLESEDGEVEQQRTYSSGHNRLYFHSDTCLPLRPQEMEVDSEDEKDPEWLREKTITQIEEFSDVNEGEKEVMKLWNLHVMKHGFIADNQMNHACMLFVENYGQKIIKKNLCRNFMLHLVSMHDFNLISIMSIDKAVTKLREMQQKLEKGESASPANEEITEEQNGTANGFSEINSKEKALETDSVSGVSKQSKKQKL
T1 sequence (Q09028 whole entry partner): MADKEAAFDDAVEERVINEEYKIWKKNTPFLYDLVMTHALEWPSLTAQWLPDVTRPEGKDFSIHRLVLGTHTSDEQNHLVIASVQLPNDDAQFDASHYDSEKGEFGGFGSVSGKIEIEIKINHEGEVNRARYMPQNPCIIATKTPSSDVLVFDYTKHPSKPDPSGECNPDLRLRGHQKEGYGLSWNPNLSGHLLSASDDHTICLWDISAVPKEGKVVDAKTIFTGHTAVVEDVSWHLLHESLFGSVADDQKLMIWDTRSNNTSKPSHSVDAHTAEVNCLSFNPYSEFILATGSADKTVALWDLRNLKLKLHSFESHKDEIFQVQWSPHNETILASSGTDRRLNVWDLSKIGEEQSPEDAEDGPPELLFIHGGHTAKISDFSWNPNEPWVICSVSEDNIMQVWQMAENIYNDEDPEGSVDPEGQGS

change in PRC2 activity on titration against K27me3 peptide (PRC2 [1]; 9:1 ratio of K27ac:K27me3 peptide (FIG. 3D)): no decrease | effect on PRC2 activity relative to the no peptide control (PRC2 [1]): little stimulation | effect on PRC2 activity on titration into reactions with constant low concentration of K27me3 peptide (PRC2 [1]; constant low K27me3 peptide (FIG. 3F)): no decrease | effect on apparent Vmax (PRC2 [2]): did not decrease
Substance: K27ac: H3 peptide (18-37) acetylated at K27

effect on PRC2 activity towards mononucleosome or oligonucleosome templates (PRC2 [1]; 10 or 100 μM peptide (FIG. 2C)): strongly stimulated | effect on PRC2 activity relative to the no peptide control (PRC2 [1]): strongly stimulated
Substance: K27me3: H3 peptide trimethylated at K27, allosteric activator of PRC2

inhibitory effect on PRC2 in vitro (PRC2 [1]; 50 or 100 μM H3 peptide (18-37), reconstituted nucleosomes (FIGS. 5B and 5C)): no inhibitory effect
Substance: Lys^27 replaced by Leu: H3 peptide (18-37) containing Lys27 replaced by Leu (KQLATKAARLSAPSTGGVKK)

effect on PRC2 activity relative to the no peptide control (PRC2 [1]): little stimulation
Substance: unmodified: unmodified H3 peptide (18-37)
